Source: the nanobody polyreactivity screen of Harvey et al. (2022)

Test: yeast display, Sf9 membrane polyspecificity reagent, FACS + sequencing; frameworks hold sequencing errors
In short: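 Nanobodies came from a synthetic yeast display library in Saccharomyces cerevisiae BJ5465, induced with galactose for 36–48 hours and stained for 1 hour at 4 °C with 10% biotinylated, detergent-solubilized Sf9 membrane reagent. Cells were enriched on streptavidin microbeads and then FACS-sorted, with low and high (top ~1%) gates set on anti-HA fluorescence for expression and streptavidin fluorescence for reagent binding. Each polyreactivity label reflects the gate a clone came from. Genes were amplified by colony PCR, sequenced by MiSeq 2 × 250 and filtered by CDR length.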

QVQLVESGGGLVQAGGSLRLSCAASGRIFVDYAMGWNRQAPGKERELVAAISWSGRTYYADSVKGRFTISRDNAKNTVYLQMNSLKPEDTAVYYCNAAYHYYGKYDYWGQGTQVTVSS
polyreactivity (PSR sort gate): high polyreactivity

QVQLVESGGGLVQAGGSLRLSCAASGRIFVDYVMGWYRQAPGKERELVARITWIGGNTYYADSVKGRFTISRDNAKNTVYLQMKSLKPEETAVYYCNAGLTLLSRRHEGWYGYDYWGQGTQVTVSS
polyreactivity (PSR sort gate): low polyreactivity

QVQLVESGGGLVQAGGSLRLSCAASGRIFVGYALGWYRQAPGKERELVAAINRSGSSTYYADSVKGRFTISRDNAKNTVYLQMNSLKPEDTAVYYCNARSGNRYGPRYDYWGQGTQVTVSS
polyreactivity (PSR sort gate): high polyreactivity

QVQLVESGGGLVQAGGSLRLSCAASGRIFVGYAMGWYRPAPGKERELVAAINRSGSCTYYADSVKVRFTISRDNAKITGYLQMNSLKPEDTAVYYCNARSGNRYGPRYDDWGQGTQVTVSS
polyreactivity (PSR sort gate): high polyreactivity

QVQLVESGGGLVQAGGSLRLSCAASGRIFVGYAMGWYRQAPGKEREFVAAISRNGGRTYYADSVKGRFTISRDNAKNTVYLQMNSLKPEDTAVYYCATEKYVPSPGGYWGQGTQVTVSS
polyreactivity (PSR sort gate): high polyreactivity

QVQLVESGGGLVQAGGSLRLSCAASGRIFVGYAMGWYRQAPGKERELVAAINRSGSSTYYADSVKGRFTISRDNAKNTVYLQMNSLKPEDTAVYYCNAARRQGNRYTYDYWGQGTQVTVSS
polyreactivity (PSR sort gate): high polyreactivity

QVQLVESGGGLVQAGGSLRLSCAASGRIFVGYAMGWYRQAPGKERELVAAINRSGSSTYYADSVKGRFTISRDNAKNTVYLQMNSLKPEDTAVYYCNARSANRYGPRYDYWGQGTQVTVSS
polyreactivity (PSR sort gate): high polyreactivity

QVQLVESGGGLVQAGGSLRLSCAASGRIFVGYAMGWYRQAPGKERELVAVISGRGGSTYYADSVKGRFTISRDNAKNTVYLQMNSLKPEDTAVYYCATDYYGPDYPLDYWGQGTQVTVSS
polyreactivity (PSR sort gate): low polyreactivity

QVQLVESGGGLVQAGGSLRLSCAASGRIFVHYVMGWYRQAPGKERELVAAISRSGGRTYYADSVKGRFTISRDNAKNTVYLQMNSLKPEDTAVYYCNVYHWSRVFAIDYYWGQGTQVTVSS
polyreactivity (PSR sort gate): high polyreactivity

QVQLVESGGGLVQAGGSLRLSCAASGRIFVINVMGWSRQAPGKERELVATITWSVGSTYYADSVKGRFTISRDTAKNTVYLQMNSLKPEDTAVYYCAAASSFKFDYWGQGTQVTVSS
polyreactivity (PSR sort gate): low polyreactivity

QVQLVESGGGLVQAGGSLRLSCAASGRIFVKYAMGWYRQATGKERELVAAISKSGGSTYYADSVKGRFTISRDNAKNTVYLQMNSLKPEDTAVYYCATRSRDQYSVSYRLDYWGQGTQVTVSW
polyreactivity (PSR sort gate): low polyreactivity

QVQLVESGGGLVQAGGSLRLSCAASGRIFVKYTMGWYRQAPGKERELVAAIDFDTDSTYYADSVKGRFTISRDNAMNTVYLQMNSLKPEDTAVYYCAADQYYYWYTHQSIGYDYWGQGTQVTVSS
polyreactivity (PSR sort gate): low polyreactivity

QVQLVESGGGLVQAGGSLRLSCAASGRIFVLYAMGWYRQAPGKERELVAAISTSGGSTYYADSVKGRFTISRDNAKNTYYLQMNSLKPEDTAVYYCAADRSARFLFIQYYPYGMDYWGQGTQVTVSS
polyreactivity (PSR sort gate): high polyreactivity

QVQLVESGGGLVQAGGSLRLSCAASGRIFVNYAMGWYRQAPGKEREFVAGIRVNGGSTYYADSVKGRFTISRDNAKNTVYLQMNSLKPEDTAVYYCAKAYPGTYREYDYWGQGTQVTVSS
polyreactivity (PSR sort gate): high polyreactivity

QVQLVESGGGLVQAGGSLRLSCAASGRIFVNYAMGWYRQEPGKERELVAAITSDGSTSYADSVKGRFTISRDTAKNTVYLQMNSLKPDDPAVYYCAKDFFEHSPVSHTYSSSKYDYWGEGTQVTVSS
polyreactivity (PSR sort gate): low polyreactivity

QVQLVESGGGLVQAGGSLRLSCAASGRIFVPYAMGWYRQAPGKERELVAGITSGSRTNYADSVKGRFTISRDNAKYTVYLQMNSLKPEDTEVYYCNALDFRYYGIFDYWGQGTQVTVSS
polyreactivity (PSR sort gate): high polyreactivity

QVQLVESGGGLVQAGGSLRLSCAASGRIFVQYAMGWNRQAPGKERELVAAISGSGGRTYYADSVKWRFTISRDNAKNTVYLQMNSLKTEDTAVFYCAARSSTGVSFWKPYYYWGQGTQVTLSS
polyreactivity (PSR sort gate): high polyreactivity

QVQLVESGGGLVQAGGSLRLSCAASGRIFVRYAMGWYRQAPGKERELVAAISKSGGSTYYADSVKGRFTISRDNAKNTVYLQMNSLKPEDTAVYYCNALVRRRPGYIRYDYWGQGTQVTVSS
polyreactivity (PSR sort gate): low polyreactivity

QVQLVESGGGLVQAGGSLRLSCAASGRIFVSNAMGWYRQAPGKERELVAGITWTSGSTYYADSVKGRFTISRDNAKNTVYLQMNSLKPEDTAVYYCAAEYCYGNAFDYWGQGTQVTVSS
polyreactivity (PSR sort gate): low polyreactivity

QVQLVESGGGLVQAGGSLRLSCAASGRIFVSNAMGWYRQAPGKERELVASISWSGGSTYYADSVKGRFTISRDNAKNTVYLQMNSLKPEDTAVYYCNRVRYPRQGFRLYYWGQGTQVTVSS
polyreactivity (PSR sort gate): high polyreactivity

QVQLVESGGGLVQAGGSLRLSCAASGRIFVSNVMGWYRQAPGKERELVATITWSDGSTYYADSVKGRFTISRDNAKNTVYLQMNSLKPEDTAVYYCNVDQYTYVDLYWEYYFWGQGTQVTVSS
polyreactivity (PSR sort gate): low polyreactivity

QVQLVESGGGLVQAGGSLRLSCAASGRIFVTNAMGGYRQAPGKEREFVAGISFSGDGRTYYADSVKGRFTISRDNAKNTVYLQMNSLKPEDSAVYYCAAPHRSRTHELDYWGQGTQVTVSS
polyreactivity (PSR sort gate): low polyreactivity

QVQLVESGGGLVQAGGSLRLSCAASGRIFVTYVMGWYRQAPGKERELVAAISRRGGTTYYADSVKGRFTISRDNAKNTVYLQMNSLKPEDTAVYYCNVARDYAVESGYWGQGTQVTVSS
polyreactivity (PSR sort gate): high polyreactivity

QVQLVESGGGLVQAGGSLRLSCAASGRIFVVNAMGWYRQAPGKESELVAAITRRGGSTYADSVKGRFTISRDNAKNTLYIQMTSLKPEDTAVYYCNAESDFGIFRYKYDYWGQCTQVTVSS
polyreactivity (PSR sort gate): high polyreactivity

QVQLVESGGGLVQAGGSLRLSCAASGRIFVYNAMGWYRQAPGKERELVAAITRGCSTYYADSVKGRFTISRDNAKNTVYLQMNSLKPEDTAVYYCASDYQRNDFRWYDYWGQGTQVTVSS
polyreactivity (PSR sort gate): low polyreactivity

QVQLVESGGGLVQAGGSLRLSCAASGRIFVYNAMGWYRQAPGKERELVATITSGGSTYYADSVKGRFTISRDNAKNTVYLQMNSLKPEDTAVYYCAARRWYVHYFAYGYWGQRTQVTVSS
polyreactivity (PSR sort gate): low polyreactivity

QVQLVESGGGLVQAGGSLRLSCAASGRIFVYNAMGWYRQAPGKERQLVAAIRNDGSTNYADSVKGRFTISRDNAKNTVYLLMNSLKPEDTAVYYCAKSVTGWRGLWYTPRNYYWGQGTQVTVSS
polyreactivity (PSR sort gate): high polyreactivity

QVQLVESGGGLVQAGGSLRLSCAASGRIFVYNVMGRYRQAPGKERELVAAISWGTGSTYADSVKGRFTISRDNAKNTVYLQMNSLKPEDTAVYYCAADSFIPPYDHWGQGTQVTVSS
polyreactivity (PSR sort gate): low polyreactivity

QVQLVESGGGLVQAGGSLRLSCAASGRIFVYNVMGWYRQAPGKERELVAAISWGTGSTYADSVKGRFTISRDNAKNSVNLQMNSLKPDDTAVYYCAKESTVRRYDYWGLGTQVTVSS
polyreactivity (PSR sort gate): low polyreactivity

QVQLVESGGGLVQAGGSLRLSCAASGRIFVYYAMGWNRQAPGKERELVAAISSSGGSTYYADSVKGRFTISRDNAKNTVYLQMNSLKPEDTAVYYCNAVTSVQARPRNYYYWGQGTQVTVSS
polyreactivity (PSR sort gate): high polyreactivity

QVQLVESGGGLVQAGGSLRLSCAASGRIFVYYAMGWYRQAPGKEREFVAAITDSGGGTYYADSVKGRFTISRDNAKNTVYLQMNSLKPEDTAVYYCAKRFGQYRYPYDYWGQGTQVTVSS
polyreactivity (PSR sort gate): high polyreactivity

QVQLVESGGGLVQAGGSLRLSCAASGRIFVYYAMGWYRQAPGKERELVAAITYSVDSTYYADSVKGRFTISRDNAKNTVYLQMNSLKPEDTAVYYCATDVDLAYGYQYEYWGQGTQVTVSS
polyreactivity (PSR sort gate): low polyreactivity

QVQLVESGGGLVQAGGSLRLSCAASGRIFVYYAMGWYRQAPGKERELVAAITYSVDSTYYADSVKGRFTISRDNAKNTVYLQMNSLKPEDTAVYYCATDVDWAYGYQYEYWGQGTQVTVSS
polyreactivity (PSR sort gate): low polyreactivity

QVQLVESGGGLVQAGGSLRLSCAASGRIFVYYVMGWYRQAPGKERELVASITFRGSRTYYADSVKGRFTISRDNAKNTVYLQMNSLKPEDTAVDYCNADVWASGSRGEGYWGQGTQVTVSS
polyreactivity (PSR sort gate): low polyreactivity

QVQLVESGGGLVQAGGSLRLSCAASGRIFWANAMGWYRQAPGKERELVAAISYSGVSTYYADSVKGRFTISRDNAKNTVYLQMNSLKPEDTAVYFCAADRYRKYYYWGQGTQVTVSS
polyreactivity (PSR sort gate): high polyreactivity

QVQLVESGGGLVQAGGSLRLSCAASGRIFWANAMGWYRQATGKERELVAAITGSGRTYYADSVKGRFTISRDNAKNTVYLQMISLKREDTAVYYCAAVTYYELAQGYGYWGQGTQVTVSS
polyreactivity (PSR sort gate): high polyreactivity

QVQLVESGGGLVQAGGSLRLSCAASGRIFWAYTMGWYRQAPGKERELVAAITGSGGSTYYADSVKGRFTISRDNAKNTVYLQMNSLKPEDTAVYYCAADIGYIRLPRGREYDYWGQGTEVTVSS
polyreactivity (PSR sort gate): high polyreactivity

QVQLVESGGGLVQAGGSLRLSCAASGRIFWDNAMGWYRQAPGKERELVAAISDSVVITYYADSVKGRFTISRDNAKNTVYLQMNSLKPEDTAVYYCAADKRGTVYLSSFWMDYWGQGTQVTVSS
polyreactivity (PSR sort gate): low polyreactivity

QVQLVESGGGLVQAGGSLRLSCAASGRIFWDNDMGWYRQAPGKERELVAAISRRGGSTSYADSVKGRFTISRDNAKNTVYLQMYSLKPEDTAVYYCIVRTRWTRVRRYDYWGQGTQVTVSS
polyreactivity (PSR sort gate): high polyreactivity

QVQLVESGGGLVQAGGSLRLSCAASGRIFWDYAMGWYRKAPGKERELVAVITFSGDSTYYADSVKGRFTISRDNAKNTVYLQMNSLKPEDTAVYYCAAARAIRQFWYVATFEYWGQGTQVTVSS
polyreactivity (PSR sort gate): low polyreactivity

QVQLVESGGGLVQAGGSLRLSCAASGRIFWGYSMGWYRQAPGKERELVAAITSGGRTYYADSVKGRFTISRDNAKNTVYLQMNSLKPEDTAVYYCAAVYVPYYWLGRSRGLDYWGQGTQVTVSS
polyreactivity (PSR sort gate): high polyreactivity

QVQLVESGGGLVQAGGSLRLSCAASGRIFWINDMGWSRQAPGKERELVAAIRSIGGSTYYADSVKGRFTISRDNGKNTVYLQMNSLKPEDTAVYYCAAKSSPKVRGRYYYWGQGTQVTVSS
polyreactivity (PSR sort gate): low polyreactivity

QVQLVESGGGLVQAGGSLRLSCAASGRIFWNYAMGWYRQAPGKERELVAAITWSGGSTYADSVNGRFTISRDNAKYTVYLQMNSLKPEDTAEYYCAAAYASYKFDYWGQGTQVTVSS
polyreactivity (PSR sort gate): low polyreactivity
